Non-standard residues stand in square brackets, D forms with d. No end group written: not given here.
T1: C5a receptor expressed on the surface of human PMNs (human, UniProt P21730 1-350)
T1 sequence (looked up): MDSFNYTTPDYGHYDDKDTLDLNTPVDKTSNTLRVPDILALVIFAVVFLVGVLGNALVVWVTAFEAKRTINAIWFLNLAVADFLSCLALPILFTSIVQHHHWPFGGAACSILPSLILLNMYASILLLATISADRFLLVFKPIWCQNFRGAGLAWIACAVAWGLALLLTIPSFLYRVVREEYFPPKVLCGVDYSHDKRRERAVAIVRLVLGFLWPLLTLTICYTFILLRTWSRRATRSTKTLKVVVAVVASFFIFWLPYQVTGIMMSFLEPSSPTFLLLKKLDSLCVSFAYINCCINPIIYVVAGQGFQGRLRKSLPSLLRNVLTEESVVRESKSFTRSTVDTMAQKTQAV

B1: IPQSLDSWWTSLRRYSFKPMPLaRG (peptide)
peptide: IPQSLDSWWTSLRRYSFKPMPL[dA]RG
notes: synthetic peptide
B2: C5a C-terminal decapeptide agonist analog YSFKPMPLaR (peptide)
peptide: YSFKPMPL[dA]R
notes: synthetic peptide; also called C5a agonist
B3: YSFKPMPLa[…] (peptide)
peptide: YSFKPMPL[dA]RRRIPQSLDSWWTSL
notes: synthetic peptide
B4: IPQSLDSWWTSLRRYSFKPMPLaR (peptide)
peptide: IPQSLDSWWTSLRRYSFKPMPL[dA]R
notes: synthetic peptide; also called double-Arg-linked C5a-active construct
B5: IPQSLDSWWTSLYSFKPMPLaR (peptide)
peptide: IPQSLDSWWTSLYSFKPMPL[dA]R
notes: synthetic peptide
B6: IPQSLDSWWTSLRVRRYSFKPMPLaR (peptide)
peptide: IPQSLDSWWTSLRVRRYSFKPMPL[dA]R
notes: synthetic peptide; also called RVRR-containing C5a-active construct
B7: natural C5a (ligand, UniProt P01031 678-751, looked up)
chain: TLQKKIEEIAAKYKHSVVKKCCYDGACVNNDETCEQRAARISLGPRCIKAFTECCVVASQLRANISHKDMQLGR
notes: C5a is a fragment of it

Key:
[1] = target: T1, C5a receptor expressed on the surface …; experiment: cell-based or functional assay
[2] = target: T1, C5a receptor expressed on the surface …; experiment: cell-based or functional assay; remark: listed apart in the source
[3] = target: T1, C5a receptor expressed on the surface …; experiment: competition with 125I-C5a on intact human PMNs
Protocol: Statistical analysis of the values obtained from pharmacologic assays was performed using one-way analysis of variance (ANOVA).

Binder	smooth muscle contraction of human umbilical artery, EC50 [1]	smooth muscle contraction of human umbilical artery, pD2 [1]	MPO release from human PMNs, EC50 [2]	MPO release from human PMNs, pD2 [2]	IC50 [3]	pD2 (-log IC50 (M)) [3]
B1	6.78 µM	5.17 -log EC50 (M)	2.56 µM	5.59 -log EC50 (M)	17 µM	4.77 -log IC50 (M)
B2	0.01 µM	6.99 -log EC50 (M)	–	–	–	5.63 -log IC50 (M)
B3	39.4 µM	4.41 -log EC50 (M)	> 1000 µM	> 3 -log EC50 (M)	465 µM	3.33 -log IC50 (M)
B4	0.161 µM	6.79 -log EC50 (M)	0.54 µM	6.27 -log EC50 (M)	0.416 µM	6.38 -log IC50 (M)
B5	0.21 µM	6.68 -log EC50 (M)	1.58 µM	5.8 -log EC50 (M)	3.69 µM	5.43 -log IC50 (M)
B6	0.18 µM	6.67 -log EC50 (M)	2.15 µM	5.61 -log EC50 (M)	0.529 µM	6.28 -log IC50 (M)
B7	0.002 µM	8.77 -log EC50 (M)	0.003 µM	8.5 -log EC50 (M)	0.0004 µM	9.43 -log IC50 (M)

— patent US20080286228A1 (published 2008)
